{
  "source": "patent US8796201B2",
  "about": "(The Board of Trustees of the Leland Stanford Junior …, priority 2002, dated 2014)",
  "molecules": {"B1": {"name": "MX PEP: novel recombinant prolyl endopeptidase from Myxococcus xanthus (Genbank AF127082, SEQ ID NO:47) (protein, listed as Myxococcus xanthus)", "chain": "MSYPATRAEQVVDTLHGVQVADPYRWLEDEKAPEVQTWMTAQNAHAREALAKFPGREALAARFKELFYTDSVSTPSRRNGRFFYVRTHKDKEKAILYWRQGESGQEKVLLDPNGWSKDGTVSLGTWAVSWDGKKVAFAQKPNAADEAVLHVIDVDSGEWSKVDVIEGGKYATPKWTPDSKGFYYEWLPTDPSIKVDERPGYTTIRYHTLGTEPSKDTVVHERTGDPTTFLQSDLSRDGKYLFVYILRGWSENDVYWKRPGEKDFRLLVKGVGAKYEVHAWKDRFYVLTDEGAPRQRVFEVDPAKPARASWKEIVPEDSSASLLSVSIVGGHLSLEYLKDATSEVRVATLKGKPVRTVQLPGVGAASNLMGLEDLDDAYYVFTSFTTPRQIYKTSVSTGKSELWAKVDVPMNPEQYQVEQVFYASKDGTKVPMFVVHRKDLKRDGNAPTLLYGYGGFNVNMEANFRSSILPWLDAGGVYAVANLRGGGEYGKAWHDAGRLDKKQNVFDDFHAAAEYLVQQKYTQPKRLAIYGGSNGGLLVGAAMTQRPELYGAVVCAVPLLDMVRYHLFGSGRTWIPEYGTAEKPEDFKTLHAYSPYHHVRPDVRYPALLMMAADHDDRVDPMHARKFVAAVQNSPGNPATALLRIEANAGHGGADQVAKAIESSVDLYSFLFQVLDVQGAQGGVAAQGR"}, "B2": {"name": "PEP: prolyl endopeptidase; Examples 1-2: from Flavobacterium meningosepticum (US Biological); Example 11: source not stated (protein, UniProt P27028 21-705, looked up)", "Prolyl endopeptidase": "QNSNVLKYPETKKVSHTDTYFGTQVSDPYRWLEDDRAEDTKAWVQQEVKFTQDYLAQIPFRDQLKKQLMDIWNYEKISAPFKKGKYTYFSKNDGLQAQSVLYRKDAAGKTEVFLDPNKFSEKGTTSLASVSFNKKGTLVAYSISEGGSDWNKIIILDAETKKQLDETLLDVKFSGISWLGDEGFFYSSYDKPKEGSVLSGMTDKHKVYFHKLGTKQSQDELIIGGDKFPRRYIGAYVTDDQRYLVVSAANATNGNELYIKDLKNKTDFIPIITGFDSNVNVADTDGDTLYLFTDKDAPNKRLVKTTIQNPKAETWKDVIAETSEPLEINTGGGYFFATYMKDAIDQVKQYDKNGKLVRAIKLPGSGNASGFGGEKTEKDLYYSFTNYITPPTIFKYNVTTGNSEVYQKPKVKFNPENYVSEQVFYTSSDGTKIPMMISYKKGLKKDGKNPTILYSYGGFNISLQPAFSVVNAIWMENGGIYAVPNIRGGGEYGKKWHDAGTKMQKKNVFNDFIAAGEYLQKNGYTSKEYMALSGRSNGGLLVGATMTMRPDLAKVAFPGVGVLDMLRYNKFTAGAGWAYDYGTAEDSKEMFEYLKSYSPVHNVKAGTCYPSTMVITSDHDDRVVPAHSFKFGSELQAKQSCKNPILIRIETNAGHGAGRSTEQVVAENADLLSFALYEMGIKSLK"}, "B3": {"name": "FM PEP: recombinant prolyl endopeptidase from Flavobacterium meningosepticum (Genbank D10980) (protein)", "chain": "B2 Prolyl endopeptidase"}},
  "key": {"[1]": {"assay": "Retention of PEP activity on lyophilization, enteric coating, storage and tabletting", "type": "physicochemical", "experimental": "Lyophilization of M. xanthus PEP was performed as follows. The PEP was purified as described in Example 3, and concentrated to an initial concentration of 7.7 mg/ml by Tangential-Flow Filtration (TFF) using a 10K MWCO Pellicon difiltration membrane (Millipore, PLCGC10, 50 cm, Cat. No. PXC010C50). TFF (using a LabScale TFF from Millipore, Cat. No. 29751) was performed for approximately 12 hours (pressure of 50 psi (retentate)/30 psi (permeant)), with periodic addition to the reservoir of 50 mM Sodium Phosphate, 3% Sucrose pH 7.5. Thereafter, PEG-4000 was added with a target concentration of 1%. The final protein concentration was 70-100 mg/ml. This material was centrifuged, then lyophilized. The lyophilization was performed in square petri dishes (Falcon Cat. No. 35-1112) in a DuraStop lyophilizer using parameters outlined in the Table below. Typically, 0.7-0.85 mg PEP was present per mg of lyophilized material.\nThe enteric coating was mixed vigorously in a beaker on a stir plate. The solution was then decanted into a spray bottle. Rat capsules were carefully spread on paper towels in groups of 20 and the enteric coating solution sprayed onto the capsules. Warm air was used to partially dry the capsules before moving them to a dry paper towel where they air-dried for 30 minutes before the next coat was applied. A total of 3 coats were applied in order to cover all sides of the capsules. […]"}, "[2]": {"assay": "Double-blind crossover gluten challenge: 25 g D-xylose 5-hour urine excretion test", "type": "in vivo, human (Celiac Sprue patients)", "text": "It was first established that a low-dose, short-term (5-10 g/day for 14 days) gluten oral supplement induces fat and carbohydrate malabsorption when given to asymptomatic Celiac Sprue patients on an otherwise gluten free diet. This protocol was modified to examine the effect of gluten pre-treated with pepsin, trypsin and chymotrypsin (PTC-Gluten) as compared to PTC-Gluten additionally treated with PEP (PTC-Gluten+PEP). In this study, Celiac patients maintaining a gluten-free diet ingested a supplement of 5 g/day gluten as PTC-Gluten or PTC-Gluten+PEP in an orange-lemon juice vehicle for 14 days in a double-blind crossover manner. A 6-week washout interval between individual arms of the crossover trial allowed patients to recover completely from the effects, if any, of the test material in the first arm.\nSubjects and protocols: This study was approved by the Institutional Review Board of the Palo Alto Medical Foundation in Palo Alto, Calif., and all participants in the study were counseled regarding risks and signed an informed consent document. 22 patients were recruited who were in symptomatic remission on a gluten-free diet. Two patients dropped out of the study, one near the end of the first stage and the other prior to the second stage. The 20 patients who completed the study included 7 men and […] aged 21 to 78 (mean age 49). The time since diagnosis for the 20 patients ranged from 3 months to 18 years (mean 6 years). Patients provided copies of their initial small-intestinal biopsy pathology report and laboratory reports documenting a history of at least one positive celiac antibody (gliadin, endomysial or transglutaminase) to verify a diagnosis of Celiac Sprue. They also completed an entry questionnaire inquiring about their medical history, adherence to the gluten-free diet, and current symptoms. The format of the study was a double-blinded crossover in which each patient consumed either a low daily dose of a gluten supplement (5 g; equivalent of one-half slice of bread) that was predigested with pepsin, trypsin and chymotrypsin alone (PTC-Gluten) or PTC-Gluten treated with prolyl endopeptidase (PTC-Gluten+PEP). The PEP in the latter orange juice mixture was completely inactivated through a heating process following proteolysis of the gliadin peptides. […]\nStudied variables: During each stage of the study, patients completed a daily questionnaire inquiring about symptoms and their adherence to the gluten-free diet. […] The serum anti-gliadin IgA antibodies and anti-tissue transglutaminase IgA and IgG antibodies were measured by an enzyme linked immunosorbent assay (ELISA) kit (INOVA Diagnostics, Inc., San Diego, Calif.). […] Total serum IgA levels were determined by an Integra instrument (Roche) (normal <81 mg/dl). […]"}, "[3]": {"assay": "Allergenicity of the denatured protein", "design": "species or system rodents, rabbits and humans", "conditions": "in vivo"}, "[4]": {"conditions": "All patients with full xylose data (N = 14)"}, "[5]": {"conditions": "Subgroup with normal (>4 gm/5 hrs) Pre-stage Xylose (N = 10)"}},
  "data": [
    {"molecule": "B1", "values": [
      {"measurement": "specific activity upon lyophilization", "setting": "[1]", "result": "No loss of specific activity"}
    ]},
    {"molecule": "B2", "values": [
      {"measurement": "PEP Effective (patients / patients with positive gluten challenge), urine xylose", "setting": "[2]; [4]", "result": "4/8"},
      {"measurement": "PEP Effective, urine xylose", "setting": "[2]; [4]", "result": 50, "unit": "%"},
      {"measurement": "PEP Effective (patients / patients with positive gluten challenge), urine xylose", "setting": "[2]; [5]", "result": "3/5"},
      {"measurement": "PEP Effective, urine xylose", "setting": "[2]; [5]", "result": 60, "unit": "%"}
    ]},
    {"molecule": "B3", "values": [
      {"measurement": "allergenicity of the denatured protein", "setting": "[3]", "result": "non-allergenic in rodents, rabbits and humans"}
    ]}
  ]
}
